The source of these data is the Immune Epitope Database (IEDB).

One may read the Kd as the equilibrium constant for the complex coming apart.

Bounds are passed on as bounds.

The target of experiment [1] is HLA-B*40:01. Put plainly: IEDB peptide-MHC binding, purified MHC/direct/fluorescence; filed as Kd, often an IC50 or EC50 that approximates it; ≥ and ≤ were set here for values at or beyond the usual limits of such assays. The note with it: source organism: West Nile virus.
The target of experiment [2] is HLA-B*18:01. The experiment is described as above. The note with it: source organism: West Nile virus.
Experiment [3] addresses HLA-B*40:01. As to the kind of experiment: IEDB peptide-MHC binding, purified MHC/competitive/radioactivity; filed as Kd, often an IC50 or EC50 that approximates it; ≥ and ≤ were set here for values at or beyond the usual limits of such assays.
The next experiment addresses HLA-B*45:01. The description is as above.
Another experiment has as its target HLA-B*40:02. Described as above.
The next experiment concerns the target HLA-B*44:02. The experiment is described as above.
Experiment [4] addresses HLA-B*18:01. The experiment is described as above.
Another experiment deals with HLA-B*44:03. The experiment is described as above.
The target of another experiment is HLA-A*26:01. As to the kind of experiment: IEDB peptide-MHC binding, purified MHC/competitive/fluorescence; filed as Kd, often an IC50 or EC50 that approximates it; ≥ and ≤ were set here for values at or beyond the usual limits of such assays. Conditions: source organism: Bacillus anthracis str. A0488.
For another experiment, the target named is HLA-A*02:01. Put plainly: IEDB peptide-MHC binding, purified MHC/competitive/radioactivity; filed as Kd, often an IC50 or EC50 that approximates it; ≥ and ≤ were set here for values at or beyond the usual limits of such assays.
The next experiment concerns the target HLA-A*02:03. The experiment is described as above.
The target in another experiment is HLA-A*02:02. Described as above.
A further experiment has as its target HLA-A*02:06. The experiment is described as above.
For the next experiment, the target named is HLA-A*68:02. The description is as above.
A further experiment deals with HLA-B*08:01. Put plainly: IEDB peptide-MHC binding, purified MHC/direct/fluorescence; filed as Kd, often an IC50 or EC50 that approximates it; ≥ and ≤ were set here for values at or beyond the usual limits of such assays. The note with it: source organism: Salmonella enterica subsp. enterica serovar Typhimurium str. LT2.
The next experiment deals with HLA-B*51:01. Put plainly: IEDB peptide-MHC binding, purified MHC/competitive/fluorescence; filed as Kd, often an IC50 or EC50 that approximates it; ≥ and ≤ were set here for values at or beyond the usual limits of such assays. Conditions: source organism: Vibrio antiquarius.
Setting [5] is: source organism: SARS coronavirus Tor2.
The mark [6] stands for this setting: source organism: Mammarenavirus machupoense.
[7] abbreviates: source organism: Mammarenavirus guanaritoense.
Setting [8] is: source organism: Mammarenavirus lassaense.
[9] abbreviates: source organism: Lassa virus Josiah.
[10] abbreviates: source organism: Mammarenavirus brazilense.

For the sequence EERKNFLEL, the Kd is no less than 20000 nM in the experiment with HLA-B*40:01 [1] and 48.4 nM with HLA-B*18:01 [2].
As to KETSYTTTI, the Kd with HLA-B*40:01 [3] (setting [5]) is 20.7 nM; with HLA-B*45:01 (setting [5]), 183 nM; with HLA-B*40:02 (setting [5]), 59.6 nM; with HLA-B*44:02 (setting [5]), 90.8 nM; with HLA-B*18:01 [4] (setting [5]) it was no less than 77500 nM; with HLA-B*44:03 (setting [5]), 125 nM.
Consider PDIGELFGL, for which the Kd in the experiment with HLA-B*40:01 [3] (setting [6]) was 12700 nM; with HLA-B*45:01 (setting [6]), no less than 77700 nM; with HLA-B*40:02 (setting [6]), no less than 22100 nM; in the experiment with HLA-B*44:02 (setting [6]) it was no less than 77900 nM; in the experiment with HLA-B*18:01 [4] (setting [6]), no less than 77500 nM; with HLA-B*44:03 (setting [6]), no less than 66600 nM.
With GDRWFLNRFT, the Kd was no less than 69600 nM in the experiment with HLA-B*40:01 [3] (setting [5]); no less than 70000 nM with HLA-B*45:01 (setting [5]); no less than 70800 nM with HLA-B*40:02 (setting [5]); no less than 70200 nM in the experiment with HLA-B*44:02 (setting [5]); no less than 70500 nM with HLA-B*18:01 [4] (setting [5]); no less than 70100 nM with HLA-B*44:03 (setting [5]).
For the sequence NECAQVLSEM, the Kd came out at 801 nM with HLA-B*40:01 [3] (setting [5]); 4950 nM with HLA-B*45:01 (setting [5]); 12200 nM with HLA-B*40:02 (setting [5]); 253 nM with HLA-B*44:02 (setting [5]); 177 nM in the experiment with HLA-B*18:01 [4] (setting [5]); 121 nM with HLA-B*44:03 (setting [5]).
Regarding TEFQSVTFTM, the Kd is 1570 nM with HLA-B*40:01 [3] (setting [6]); 13600 nM with HLA-B*45:01 (setting [6]); 126 nM with HLA-B*40:02 (setting [6]); 1160 nM in the experiment with HLA-B*44:02 (setting [6]); 32.8 nM with HLA-B*18:01 [4] (setting [6]); 636 nM with HLA-B*44:03 (setting [6]).
In turn, EGIYKLSSM registered a Kd with HLA-A*26:01 of 43.1 nM.
For the sequence PEFDWILGWT, the Kd with HLA-B*40:01 [3] (setting [7]) was no less than 69500 nM; in the experiment with HLA-B*45:01 (setting [7]), no less than 70000 nM; with HLA-B*40:02 (setting [7]), no less than 23600 nM; with HLA-B*44:02 (setting [7]), no less than 70200 nM; in the experiment with HLA-B*18:01 [4] (setting [7]), no less than 70400 nM; with HLA-B*44:03 (setting [7]) it was no less than 28100 nM.
As for QEIQLLAAVG, the Kd with HLA-B*40:01 [3] (setting [5]) turned out to be 2010 nM; with HLA-B*45:01 (setting [5]) it was 121 nM; with HLA-B*40:02 (setting [5]), 18000 nM; with HLA-B*44:02 (setting [5]), 883 nM; in the experiment with HLA-B*18:01 [4] (setting [5]), 6880 nM; with HLA-B*44:03 (setting [5]), 440 nM.
Consider NLPIYSEEI, for which the Kd was determined as 66.6 nM with HLA-A*02:01 (source organism: Homo sapiens); 390 nM with HLA-A*02:03 (source organism: Homo sapiens); 77.1 nM with HLA-A*02:02 (source organism: Homo sapiens); 27.5 nM with HLA-A*02:06 (source organism: Homo sapiens); 39.3 nM in the experiment with HLA-A*68:02 (source organism: Homo sapiens).
Consider TMRLRSEVL, for which the Kd with HLA-B*08:01 is 22 nM.
As for IPVEPAFQV, the Kd in the experiment with HLA-B*51:01 is 254 nM.
Consider RERVNINIV, for which the Kd with HLA-B*40:01 [3] (setting [5]) was 10700 nM; with HLA-B*45:01 (setting [5]) it was 265 nM; with HLA-B*40:02 (setting [5]) it was 26 nM; in the experiment with HLA-B*44:02 (setting [5]), no less than 35400 nM; with HLA-B*18:01 [4] (setting [5]), no less than 37800 nM; with HLA-B*44:03 (setting [5]), no less than 38200 nM.
Turning to QEAYYRARA, the Kd in the experiment with HLA-B*40:01 [3] (setting [5]) is 19900 nM; with HLA-B*45:01 (setting [5]), 15.1 nM; with HLA-B*40:02 (setting [5]) it was 1930 nM; with HLA-B*44:02 (setting [5]), 6160 nM; in the experiment with HLA-B*18:01 [4] (setting [5]), no less than 50800 nM; with HLA-B*44:03 (setting [5]), 7320 nM.
Take GEPKMTKAL: the Kd was 1770 nM with HLA-B*40:01 [3] (setting [8]); no less than 68100 nM with HLA-B*45:01 (setting [8]); 178 nM with HLA-B*40:02 (setting [8]); no less than 20300 nM with HLA-B*44:02 (setting [8]); no less than 77500 nM with HLA-B*18:01 [4] (setting [8]); no less than 49900 nM with HLA-B*44:03 (setting [8]).
Take LTYSQLMTL: the Kd with HLA-A*02:01 (setting [9]) was 227 nM; in the experiment with HLA-A*02:03 (setting [9]) it was 7.81 nM; with HLA-A*02:02 (setting [9]), 11.1 nM; with HLA-A*02:06 (setting [9]), 57.8 nM; with HLA-A*68:02 (setting [9]), 103 nM.
For the sequence HENKNATWCL, the Kd was determined as 915 nM with HLA-B*40:01 [3] (setting [10]); 5060 nM with HLA-B*45:01 (setting [10]); 54.4 nM with HLA-B*40:02 (setting [10]); 4540 nM with HLA-B*44:02 (setting [10]); 16600 nM with HLA-B*18:01 [4] (setting [10]); 15300 nM with HLA-B*44:03 (setting [10]).
